Assay results published in US20230183352A1 (published 2023).
Residue numbers refer to the chain shown, from its start.

B1: QP207208 (antibody, V domains shown)
VH: EVQLQQSGPELVKPGASVKMSCKASGYTFTSYIMHWVKQKPGQGLEWIGYINPYNDGTKYNEKFKGKATLTSDKSSSTVYMELSSLTSEDSAVYCCARLGFTTRNAMDYWGQGTSVTVSS
VL: DIVMTQSPSSLSVSAGEKVTMNCKSSQSLLNSGNQKNYLAWYQQKPGQPPKLLIYGASTRESGVPDRFTGSGSGTDFTLTISSVQAEDLAVYYCQNDHSYPFTFGSGTKLEIK
B2: QP14631462 (antibody, V domains shown)
VH: QVQLVQSGAEVKKPGASVKVSCKASGYTFTSYIMHWVRQAPGQGLEWMGYINPYNDGTKYNEKFKGRVTMTRDTSTSTVYMELSSLRSEDTAVYYCARLGFTTRNAMDYWGQGTLVTVSS
VL: B1 VL with S9D, S12A, A15L, K18R, V19A, M21I, L89V, S106Q
B3: QP14491447 (antibody, V domains shown)
VH: EVQLVESGGGLVQPGGSLRLSCAASGFTFSSFGMHWVRQAPGKGLEWVSYISSGSNSIYYVDTVKGRFTISRDNAKNSLYLQMNSLRDEDTAVYYCARNAYYGNSFDYWGQGTLVTVSS
VL: DIVMTQSPDSLAVSLGERATISCKSSQSLLNSGNQKNYLTWYQQKPGQPPKLLIYWASTRESGVPDRFSGSGSGTDFTLTISSLQAEDVAVYFCQNNYYYPLTFGGGTKVEIK
B4: QP14661462 (antibody, V domains shown)
VH: B2 VH with Q1E, R38K, M48I, R67K, V68A, M70L, R72S, T74K, Y95C
VL: B1 VL with S9D, S12A, A15L, K18R, V19A, M21I, L89V, S106Q
B5: QP14511447 (antibody, V domains shown)
VH: B3 VH with S49A, D88S
VL: B3 VL
B6: QP14431439 (antibody, V domains shown)
VH: QVQLVQSGAEVKKPGASVKVSCKASGYAFSSYWMNWVRQAPGQGLEWMGQIYPGNGDTTYNGKFKGRVTMTRDTSTSTVYMELSSLRSEDTAVYYCARFVKGNAMDYWGQGTLVTVSS
VL: B3 VL with S22N, F93Y, N97A, Y99S, L102F, G106Q, V110L
B7: QP14431440 (antibody, V domains shown)
VH: B6 VH
VL: B3 VL with F93Y, N97A, Y99S, L102F, G106Q, V110L
B8: QP192193 (antibody, V domains shown)
VH: QVQLQQSGAELVRPGSSVKISCKASGYAFSSYWMNWVKQRPGQGLEWIGQIYPGNGDTTYNGKFKGQATLTADKSSSTVYMQLSSLTSEDSAVYFCARFVKGNAMDYWGQGTSVTVSS
VL: DIVMTQSPSSLTVTAGEKVTMSCKSSQSLLNSGNQKNYLTWYQQNPGQPPKMLIYWASTRESGVPDRFTGSGSGIDFSLTISSVQAEDLALYYCQNAYSYPFTFGSGTKLEIK
B9: QP14381433 (antibody, V domains shown)
VH: EVQLVESGGGLVKPGGSLRLSCAASGFTFSNYAMSWVRQAPGKRLEWVASIISGGRTYYLDSEKGRFTISRDNAKNSLYLQMNSLRAEDTAVYYCTRIYYGNSFDYWGQGTLVTVSS
VL: B3 VL with S22N, F93Y, N97D, Y99S, L102F, G106Q, V110L
B10: QP14381435 (antibody, V domains shown)
VH: B9 VH
VL: B3 VL with S69T, F93Y, N97D, Y99S, L102F, G106Q, V110L
B11: QP14361433 (antibody, V domains shown)
VH: B9 VH with R44G, A49S
VL: B3 VL with S22N, F93Y, N97D, Y99S, L102F, G106Q, V110L
B12: QP14381434 (antibody, V domains shown)
VH: B9 VH
VL: B3 VL with F93Y, N97D, Y99S, L102F, G106Q, V110L
B13: QP14371434 (antibody, V domains shown)
VH: B9 VH with R44G
VL: B3 VL with F93Y, N97D, Y99S, L102F, G106Q, V110L
B14: QP14631460 (antibody, V domains shown)
VH: B2 VH
VL: B3 VL with S22N, T40A, W56G, F93Y, N97D, Y98H, Y99S, L102F, G106Q, V110L
B15: QP14361434 (antibody, V domains shown)
VH: B9 VH with R44G, A49S
VL: B3 VL with F93Y, N97D, Y99S, L102F, G106Q, V110L
B16: QP14371435 (antibody, V domains shown)
VH: B9 VH with R44G
VL: DIVMTQSPDSLAVSLGERATISCKSSQSLLNSGNQKNYLTWYQQKPGQPPKLLIYWASTRESGVPDRFTGSGSGTDFTLTISSLQAEDVAVYYCQNDYSYPFTFGQGTKLEIKR
B17: QP14371433 (antibody, V domains shown)
VH: B9 VH with R44G
VL: B16 VL with S22N, T69S
B18: QP14361435 (antibody, V domains shown)
VH: B9 VH with R44G, A49S
VL: B16 VL
B19: QP190191 (antibody, V domains shown)
VH: EVKLVESGGGLVKPGGSLKLSCAASGFTFSNYAMSWVRQTPEKRLEWVASIISGGRTYYLDSEKGRFTISRDNARNNLYLQMSSLRSEDTAMYYCTRIYYGNSFDYWGQGTTLTVSS
VL: B1 VL with L11Q, S12T, S14T, N22S, A40T, G56W, S83N, V84M, H98Y
B20: QP14651460 (antibody, V domains shown)
VH: B2 VH with Q1E, M48I, M70L, R72S, T74K
VL: B16 VL with S22N, T40A, W56G, T69S, Y98H
B21: QP14641461 (antibody, V domains shown)
VH: B2 VH with Q1E, M48I, M70L, T74K
VL: B16 VL with S22N, T40A, W56G, Y98H
B22: QP14441441 (antibody, V domains shown)
VH: B6 VH with M48I, R72A, T74K
VL: B16 VL with T69S, T75I, L84V, D97A
B23: QP14451440 (antibody, V domains shown)
VH: B6 VH with M48I, R72A, T74K, Y95F
VL: B16 VL with T69S, D97A
B24: QP14451442 (antibody, V domains shown)
VH: B6 VH with M48I, R72A, T74K, Y95F
VL: B16 VL with L52M, T69S, T75I, L84V, D97A

molecular target: T1, Claudin 18.2 (CLDN18.2), expressed on CHOS-CLDN 18.2 / HEK293-CLDN 18.2 / HCC827-CLDN 18.2 cells (human, UniProt P56856 1-261); experiment: cell ELISA

EC50	Binder
0.179 µg/mL	B1
0.105 µg/mL	B2
0.148 µg/mL	B3
0.538 µg/mL	B4
0.202 µg/mL	B5
0.111 µg/mL	B6
0.124 µg/mL	B7
0.101 µg/mL	B8

molecular target: T1, Claudin 18.2 (CLDN18.2), expressed on …; experiment: cell ELISA; remark: another data set of the same source

EC50	Binder
0.119 µg/mL	B1
0.125 µg/mL	B9
0.196 µg/mL	B10
0.112 µg/mL	B11
0.145 µg/mL	B12
0.284 µg/mL	B13
0.135 µg/mL	B14
0.17 µg/mL	B15
0.134 µg/mL	B16
0.108 µg/mL	B17
0.109 µg/mL	B18
0.178 µg/mL	B19

molecular target: T1, Claudin 18.2 (CLDN18.2), expressed on …; experiment: ELISA

EC50	Binder
0.0904 µg/mL	B20
0.0783 µg/mL	B21

molecular target: T1, Claudin 18.2 (CLDN18.2), expressed on …; experiment: cell ELISA; remark: another data set of the same source

EC50	Binder
0.155 µg/mL	B8

molecular target: T1, Claudin 18.2 (CLDN18.2), expressed on …; experiment: ELISA; remark: another data set of the same source

EC50	Binder
0.106 µg/mL	B22
0.0995 µg/mL	B23
0.0977 µg/mL	B24
